Key:
Assay type in all cases: binding
mouse VTCN1 protein = molecular target: T1, mouse VTCN1 protein (Mus musculus, UniProt Q7TSP5); test: Affinity by OCTET, mouse VTCN1; conditions: Table 12
T1 construct: His
T1 sequence (Q7TSP5 25-257): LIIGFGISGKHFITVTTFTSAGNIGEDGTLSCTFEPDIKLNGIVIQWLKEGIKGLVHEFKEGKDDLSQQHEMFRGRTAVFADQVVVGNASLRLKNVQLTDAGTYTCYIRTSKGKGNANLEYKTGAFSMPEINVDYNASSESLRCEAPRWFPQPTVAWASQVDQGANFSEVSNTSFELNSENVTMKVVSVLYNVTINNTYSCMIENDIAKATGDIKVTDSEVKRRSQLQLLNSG
Experimental: (§1) The affinity of antibodies to recombinant VTCN1 was determined on an OCTET™ Red (Pall, ForteBio) instrument. After loading reagents into a 96-well plate, the OCTET™ Red with Protein A-conjugated biosensors was programmed as follows: 30 seconds for baseline #1; 45 seconds to immobilize the antibody; 30 seconds for baseline #2; 300 seconds for association of antibody to recombinant VTCN1-his; and 300 seconds for dissociation of recombinant VTCN1-his from the antibody. Table 5 lists the affinity measured for selected antibodies.

[1] = test system: cynomolgus monkey VTCN1 protein; test: Affinity by OCTET, cynomolgus monkey VTCN1; conditions: Table 12
Experimental: as §1, with “antibody.” for “antibody. Table 5 lists the affinity measured for selected antibodies.”

human VTCN1 protein = molecular target: T2, human VTCN1 protein (Homo sapiens, UniProt Q7Z7D3); test: Affinity to recombinant VTCN1-his by OCTET Red (Protein A biosensors); conditions: for Human K(off) / Human k(on): Table 12; for Kdis (human) / Kon (human): Table 5; for K(off) / k(on): Table 9
T2 construct: His
T2 sequence (Q7Z7D3 25-282): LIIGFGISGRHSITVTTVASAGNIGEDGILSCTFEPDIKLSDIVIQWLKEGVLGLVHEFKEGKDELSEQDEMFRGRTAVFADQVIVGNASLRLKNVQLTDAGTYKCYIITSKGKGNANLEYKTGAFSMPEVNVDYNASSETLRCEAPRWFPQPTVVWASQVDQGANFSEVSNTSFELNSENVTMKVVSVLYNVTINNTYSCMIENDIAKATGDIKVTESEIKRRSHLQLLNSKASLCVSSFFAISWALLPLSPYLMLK
Experimental: as §1

B1: 7G7_44C6: fully human VTCN1 antibody; VH SEQ ID NO: 256, VL SEQ ID NO: 260 (antibody, V domains shown)
VH: QVQLQESGPGLVKPSETLSLTCTVSGGSISHYYWSWIRQPPGKGLEWIGYIYYSGPTNYNPSLKSRVTISVDTSKNQFSLKLSSVTAADTAVYYCARTYYYGSGSFPDAFDIWGQGTMVTVSS
VL: KIVLTQSPATLSLSPGERATLSCRASQSVSSYLAWYQQTPGQAPRLLIYDASNRATGIPARFSVSGSGTDFTLTISSLEPEDFAVYYCQQRSSWPLTFGGGTKLEIK
Mouse VTCN1 protein
  Kd: > 500 nM
[1]
  cynomolgus monkey k(off): 1.50E−01
  cynomolgus monkey k(on): 6.61E+05
Human VTCN1 protein
  Human K(off): 1.62E−01
  Human k(on): 8.42E+05

B2: 10D1: mouse anti-human VTCN1 antibody; VH SEQ ID NO: 57, VL SEQ ID NO: 61 (antibody, V domains shown)
VH: QVQLQESGPELVKPGASVKLSCKASGYIFTDYTIHWLKQSPGQGLEWIGWIYPGSGHTHYNDKFKGKATMTADKSSTTAYMQLSSLTSEDSAVFFCARGGESITTVFPLAYWGQGTLVTVSA
VL: DIVMSQSPSSLAVSVGEKVTMSCKSSQSLLYSSDQKNYLAWYQQKPGQSPKLLIYWASTWESGVPDRFIGSGSGTDFTLTVSSVKAEDLAVYYCHQYYSYPPTFGAGTKLEIK
Human VTCN1 protein
  Kdis (human): 4.04 × 10^−3
  Kon (human): 9.83 × 10^5

B3: 6E2: mouse anti-human VTCN1 antibody; VH SEQ ID NO: 33, VL SEQ ID NO: 37 (antibody, V domains shown)
VH: QIQLQESGPGLVQPSQSLSITCTVSGFSLTSYGVQWVRQSPGKGLEWLGVIWSGGSTDYNAAFISRLSISKDNSKSQVFFKMNSLQADDTAIYYCARDISTIVEGFAHWGQGTLVTVSS
VL: NIVMTQSPKSMSMSVGERVTLSCKASEKVGTYVSWYQQKPEQSPKLLIYGASNRYTGVPDRFTGSGSATDFTLTISSVQAEDLADYHCGQSYRYPFTFGSGTKLEIK
Human VTCN1 protein
  Kdis (human): 7.46 × 10^−3
  Kon (human): 9.41 × 10^5

B4: 7F10: mouse anti-human VTCN1 antibody; VH SEQ ID NO: 137, VL SEQ ID NO: 141 (antibody, V domains shown)
VH: QVQLQQSGPGLVQPSQSLSITCTVSGFSLTSYGIHWVRQSPGKGLEWLGVIWSSGSTDYNAAFISRLSISKDNSKSQVFFKMNSLQSDDTAIHYCARDITTIAEGFAYWGQGTLVTVSA
VL: NIVMTQSPKSMSMSVGERVTLSCKASENVGTYVSWYQQKPEQSPKLLIYGASNRYTGVPDRFTGSGSATDFTLTISSVQAEDLADYHCGQSYSYPFTFGSGTKLEIK
Human VTCN1 protein
  Kdis (human): 5.94 × 10^−3
  Kon (human): 1.15 × 10^6

B5: 5A12: mouse anti-human VTCN1 antibody; VH SEQ ID NO: 105, VL SEQ ID NO: 109 (antibody, V domains shown)
VH: QVQLQQSGPGLVQPSQSLSITCTVSGFSLTSYGVQWVRQSPGKGLEWLGVIWSSGSTDYNAAFISRLSINKDNSKSQVFFKMNSLQPDDTAIYYCARDITTIVEGFAYWGQGTLVTVSA
VL: IIVMTQSPKSMSMSVGERVTLSCKASENVGTYVSWYQQKPEQSPKLLIYGASNRYTGVPDRFTGSGSATDFTLTISSVQAEDLADYHCGQSYSYPFTFGSGTKLEIK
Human VTCN1 protein
  Kdis (human): 1.64 × 10^−3
  Kon (human): 3.93 × 10^5

B6: 3G10: mouse anti-human VTCN1 antibody; VH SEQ ID NO: 17, VL SEQ ID NO: 21 (antibody, V domains shown)
VH: QIQLKESGPGLVQPSQSLSITCTVSGFSLTSYGVHWVRQSPGKGLEWLGVIWSGGYTDYNSAFISRLSISKDNSKSQVFFKMNSLQADDTAIYYCARDITTIVEGFAYWGQGTLVTVSA
VL: IIVMTQSPKSMSMSVGERITLNCKASENVGTYVSWYQQKPEQSPKLLIYGASNRYTGVPDHFTGSGSATDFTLTISSVQAEDLADYHCGQTYSYPFTFGSGTKLEIK
Human VTCN1 protein
  Kdis (human): 1.26 × 10^−2
  Kon (human): 1.07 × 10^6

B7: hu6D9_57A3: humanized 6D9 antibody; VH SEQ ID NO: 220, VL SEQ ID NO: 224 (antibody, V domains shown)
VH: QVQLVESGGGVVQPGRSLRLSCAVSGFSLTSYGVQWVRQAPGKGLEWLGVIWSSGSTDYNAAFLSRLTISKDNSKNTVYFQMNSLRAEDTAVYYCARDVTTIVEGFAHWGQGTLVTVSS
VL: DIQMTQSPSSLSASVGDRVTITCKASEKVGTYVSWYQQKPGKAPKLLIYGASNRYTGVPSRFSGSGSGTDFTLTISSLQPEDFATYYCGQTYSYPFTFGQGTKLEIK
Human VTCN1 protein
  K(off): 2.27E−03
  k(on): 8.21E+04

B8: hu6D9_66B1: humanized 6D9 antibody; VH SEQ ID NO: 236, VL SEQ ID NO: 224 (antibody, V domains shown)
VH: QVQLVESGGGVVQPGRSLRLSCAVSGFTFSSYGVQWVRQAPGKGLEWLGVIWSSGSTDYNAAFLSRLTISKDNSKNTVYFQMNSLRAEDTAVYYCARDVTTIVEGFAHWGQGTLVTVSS
VL: DIQMTQSPSSLSASVGDRVTITCKASEKVGTYVSWYQQKPGKAPKLLIYGASNRYTGVPSRFSGSGSGTDFTLTISSLQPEDFATYYCGQTYSYPFTFGQGTKLEIK
Human VTCN1 protein
  K(off): 3.25E−03
  k(on): 1.20E+05

B9: hu6D9_57A4: humanized 6D9 antibody; VH SEQ ID NO: 228, VL SEQ ID NO: 224 (antibody, V domains shown)
VH: QVQLVESGPGVVQPGRSLRLSCAVSGFSLTSYGVQWVRQAPGKGLEWLAVIWSSGSTDYNAAFLSRLTISKDNSKSTVYFQMNSLRAEDTAVYYCARDVTTIVEGFAHWGQGTLVTVSS
VL: DIQMTQSPSSLSASVGDRVTITCKASEKVGTYVSWYQQKPGKAPKLLIYGASNRYTGVPSRFSGSGSGTDFTLTISSLQPEDFATYYCGQTYSYPFTFGQGTKLEIK
Human VTCN1 protein
  K(off): 2.26E−03
  k(on): 6.21E+04

B10: hu6D9_57A5: humanized 6D9 antibody; VH SEQ ID NO: 232, VL SEQ ID NO: 224 (antibody, V domains shown)
VH: QVQLVESGGGVVQPGRSLRLSCAVSGFSLTSYGVQWVRQAPGKGLEWLAVIWSSGSTDYNAAFLSRLTISKDNSKNTVYFQMNSLRAEDTAVYYCARDVTTIVEGFAHWGQGTLVTVSS
VL: DIQMTQSPSSLSASVGDRVTITCKASEKVGTYVSWYQQKPGKAPKLLIYGASNRYTGVPSRFSGSGSGTDFTLTISSLQPEDFATYYCGQTYSYPFTFGQGTKLEIK
Human VTCN1 protein
  K(off): 2.89E−03
  k(on): 8.14E+04

B11: 13H9_44D2: fully human VTCN1 antibody; VH SEQ ID NO: 272, VL SEQ ID NO: 276 (antibody, V domains shown)
VH: QVQLQESGPGLVKPSETLSLTCTVSGGSISSYYWSWIRQPPGKGLEWIGYIYYSGSTNNNPSLKSRVTISVDTSKNQFSLKLISVTAADTAVYYCARVYNNYDWGFDYWGQGTLVTVSS
VL: EIVMTQSPATLSVSPGERATLSCRASQSVSSNLAWYQQKPGQAPRLLIYGASTRATGIPARFSGSGSGTEFTLTIRSLQSEDFAVYYCQQYHNWPLTFGGGTKLEIK
Mouse VTCN1 protein
  mouse k(off): 5.79E−01
  mouse k(on): 2.16E+06
[1]
  cynomolgus monkey k(off): 1.67E−01
  cynomolgus monkey k(on): 1.16E+06
Human VTCN1 protein
  Human K(off): 1.71E−01
  Human k(on): 1.33E+06
